# Results reported in FireProtDB (doi:10.1021/bi0015717).
# Values joined by “and” are separate entries in the source; they are usually repeats but may differ in a detail not shown here. Equal values may be shown once.
# B1: Lysozyme C, P61626 (parent)
# chain: MKALIVLGLVLLSVTVQGKVFERCELARTLKRLGMDGYRGISLANWMCLAKWESGYNTRATNYNAGDRSTDYGIFQINSRYWCNDGKTPGAVNACHLSCSALLQDNIADAVACAKRVVRDPQGIRAWVAWRNRCQNRDVRQYVQGCGV
# Variants of: B1
# Conditions: Homo sapiens; pH 2.6; Thermal; DSC; glycine-HCl 0.05 M; reversible: yes; structure 1LZ1; whole UniProt chain shown
Variant,Tm [°C],unfolding enthalpy (calorimetric) [kcal/mol]
MKALIVLGLVLLSVTVQGKVFERCELARTLKRLGMDGYRGISLANWMCLAKWESGYNTRATNYNAGDRSTDYGIFQINSRYWCNDGKTPGAVNACHLSCSALLQDNIADAVACAKRVVRDPQGIRAWGAWRNRCQNRDVRQYVQGCGV [V128G],64.6,99.9

# Same assay, conditions: Homo sapiens; pH 2.7; 64.9 °C; Thermal; DSC; glycine-HCl 0.05 M; reversible: yes; structure 1LZ1; whole UniProt chain shown
row,Variant,ddG of mutation (higher = less stable) [kcal/mol]
1,MKALIVLGLVLLSVTVQGKVFERCELARTLKRLGMDGYRGISLANWMCLAKWESGYNTRATNYNAGDRSTDYGIFQINSRYWCNDGKTPGAVNACHLSCSALLQDNIADAVACAKRVVRDPQGIRAWGAWRNRCQNRDVRQYVQGCGV [V128G],-0.48
2,MKALIVLGLVLLSVTVQGKVFERCELARTLKRLGMDGYRGISLANWMCLAKWESGYNTRATNYNAGDRSTDYGIFQINSRYWCNDGKTPGAVNACHLSCSALLQDNIADAVACAKRVVRDPQGIRAWIAWRNRCQNRDVRQYVQGCGV [V128I],-0.86
3,MKALIVLGLVLLSVTVQGKGFERCELARTLKRLGMDGYRGISLANWMCLAKWESGYNTRATNYNAGDRSTDYGIFQINSRYWCNDGKTPGAVNACHLSCSALLQDNIADAVACAKRVVRDPQGIRAWVAWRNRCQNRDVRQYVQGCGV [V20G],2.29

# Same assay, conditions: Homo sapiens; pH 2.7; Thermal; DSC; glycine-HCl 0.05 M; reversible: yes; structure 1LZ1; whole UniProt chain shown
Variant,Tm,"change of melting temperature, mutant - wild type (higher = more stable) [°C]",heat capacity change of unfolding [kcal/mol/K],unfolding enthalpy (calorimetric)
MKALIVLGLVLLSVTVQGKVFERCELARTLKRLGMDGYRGISLANWMCLAKWESGYNTRATNYNAGDRSTDYGIFQINSRYWCNDGKTPGAVNACHLSCSALLQDNIADAVACAKRVVRDPQGIRAWGAWRNRCQNRDVRQYVQGCGV [V128G],66.5 °C and 64.9 °C,1.6,1.82,99.9 kcal/mol
MKALIVLGLVLLSVTVQGKVFERCELARTLKRLGMDGYRGISLANWMCLAKWESGYNTRATNYNAGDRSTDYGIFQINSRYWCNDGKTPGAVNACHLSCSALLQDNIADAVACAKRVVRDPQGIRAWIAWRNRCQNRDVRQYVQGCGV [V128I],67.3 °C and 67.6 °C and 64.9 °C,2.7,1.65,111 kcal/mol and 107 kcal/mol
MKALIVLGLVLLSVTVQGKGFERCELARTLKRLGMDGYRGISLANWMCLAKWESGYNTRATNYNAGDRSTDYGIFQINSRYWCNDGKTPGAVNACHLSCSALLQDNIADAVACAKRVVRDPQGIRAWVAWRNRCQNRDVRQYVQGCGV [V20G],,-7.5,1.31,107 kcal/mol

# Same assay, conditions: Homo sapiens; pH 2.94; Thermal; DSC; glycine-HCl 0.05 M; reversible: yes; structure 1LZ1; whole UniProt chain shown
Variant,Tm [°C],unfolding enthalpy (calorimetric) [kcal/mol]
MKALIVLGLVLLSVTVQGKVFERCELARTLKRLGMDGYRGISLANWMCLAKWESGYNTRATNYNAGDRSTDYGIFQINSRYWCNDGKTPGAVNACHLSCSALLQDNIADAVACAKRVVRDPQGIRAWGAWRNRCQNRDVRQYVQGCGV [V128G],70.6,110

# Same assay, conditions: Homo sapiens; pH 3.11; Thermal; DSC; glycine-HCl 0.05 M; reversible: yes; structure 1LZ1; whole UniProt chain shown
Variant,Tm [°C],unfolding enthalpy (calorimetric) [kcal/mol]
MKALIVLGLVLLSVTVQGKVFERCELARTLKRLGMDGYRGISLANWMCLAKWESGYNTRATNYNAGDRSTDYGIFQINSRYWCNDGKTPGAVNACHLSCSALLQDNIADAVACAKRVVRDPQGIRAWGAWRNRCQNRDVRQYVQGCGV [V128G],73.4,115

# Same assay, conditions: Homo sapiens; pH 3.3; Thermal; DSC; glycine-HCl 0.05 M; reversible: yes; structure 1LZ1; whole UniProt chain shown
Variant,Tm [°C],unfolding enthalpy (calorimetric) [kcal/mol]
MKALIVLGLVLLSVTVQGKVFERCELARTLKRLGMDGYRGISLANWMCLAKWESGYNTRATNYNAGDRSTDYGIFQINSRYWCNDGKTPGAVNACHLSCSALLQDNIADAVACAKRVVRDPQGIRAWGAWRNRCQNRDVRQYVQGCGV [V128G],76.6,122

# Same assay, conditions: Homo sapiens; pH 2.53; Thermal; DSC; glycine-HCl 0.05 M; reversible: yes; structure 1LZ1; whole UniProt chain shown
Variant,Tm [°C],unfolding enthalpy (calorimetric) [kcal/mol]
MKALIVLGLVLLSVTVQGKVFERCELARTLKRLGMDGYRGISLANWMCLAKWESGYNTRATNYNAGDRSTDYGIFQINSRYWCNDGKTPGAVNACHLSCSALLQDNIADAVACAKRVVRDPQGIRAWIAWRNRCQNRDVRQYVQGCGV [V128I],64.9,107

# Same assay, conditions: Homo sapiens; pH 2.9; Thermal; DSC; glycine-HCl 0.05 M; reversible: yes; structure 1LZ1; whole UniProt chain shown
Variant,Tm [°C],unfolding enthalpy (calorimetric) [kcal/mol]
MKALIVLGLVLLSVTVQGKVFERCELARTLKRLGMDGYRGISLANWMCLAKWESGYNTRATNYNAGDRSTDYGIFQINSRYWCNDGKTPGAVNACHLSCSALLQDNIADAVACAKRVVRDPQGIRAWIAWRNRCQNRDVRQYVQGCGV [V128I],70.9,117

# Same assay, conditions: Homo sapiens; pH 3.13; Thermal; DSC; glycine-HCl 0.05 M; reversible: yes; structure 1LZ1; whole UniProt chain shown
Variant,Tm [°C],unfolding enthalpy (calorimetric) [kcal/mol]
MKALIVLGLVLLSVTVQGKVFERCELARTLKRLGMDGYRGISLANWMCLAKWESGYNTRATNYNAGDRSTDYGIFQINSRYWCNDGKTPGAVNACHLSCSALLQDNIADAVACAKRVVRDPQGIRAWIAWRNRCQNRDVRQYVQGCGV [V128I],74.9,123

# Same assay, conditions: Homo sapiens; pH 3.23; Thermal; DSC; glycine-HCl 0.05 M; reversible: yes; structure 1LZ1; whole UniProt chain shown
Variant,Tm [°C],unfolding enthalpy (calorimetric) [kcal/mol]
MKALIVLGLVLLSVTVQGKVFERCELARTLKRLGMDGYRGISLANWMCLAKWESGYNTRATNYNAGDRSTDYGIFQINSRYWCNDGKTPGAVNACHLSCSALLQDNIADAVACAKRVVRDPQGIRAWIAWRNRCQNRDVRQYVQGCGV [V128I],76.8,127

# Same assay, conditions: Homo sapiens; pH 2.65; Thermal; DSC; glycine-HCl 0.05 M; reversible: yes; structure 1LZ1; whole UniProt chain shown
Variant,Tm [°C],unfolding enthalpy (calorimetric) [kcal/mol]
MKALIVLGLVLLSVTVQGKGFERCELARTLKRLGMDGYRGISLANWMCLAKWESGYNTRATNYNAGDRSTDYGIFQINSRYWCNDGKTPGAVNACHLSCSALLQDNIADAVACAKRVVRDPQGIRAWVAWRNRCQNRDVRQYVQGCGV [V20G],56.6,95.6

# Same assay, conditions: Homo sapiens; pH 2.83; Thermal; DSC; glycine-HCl 0.05 M; reversible: yes; structure 1LZ1; whole UniProt chain shown
Variant,Tm [°C],unfolding enthalpy (calorimetric) [kcal/mol]
MKALIVLGLVLLSVTVQGKGFERCELARTLKRLGMDGYRGISLANWMCLAKWESGYNTRATNYNAGDRSTDYGIFQINSRYWCNDGKTPGAVNACHLSCSALLQDNIADAVACAKRVVRDPQGIRAWVAWRNRCQNRDVRQYVQGCGV [V20G],59.5,99.7

# Same assay, conditions: Homo sapiens; pH 3.08; Thermal; DSC; glycine-HCl 0.05 M; reversible: yes; structure 1LZ1; whole UniProt chain shown
Variant,Tm [°C],unfolding enthalpy (calorimetric) [kcal/mol]
MKALIVLGLVLLSVTVQGKGFERCELARTLKRLGMDGYRGISLANWMCLAKWESGYNTRATNYNAGDRSTDYGIFQINSRYWCNDGKTPGAVNACHLSCSALLQDNIADAVACAKRVVRDPQGIRAWVAWRNRCQNRDVRQYVQGCGV [V20G],63.8,105

# Same assay, conditions: Homo sapiens; pH 3.19; Thermal; DSC; glycine-HCl 0.05 M; reversible: yes; structure 1LZ1; whole UniProt chain shown
Variant,Tm [°C],unfolding enthalpy (calorimetric) [kcal/mol]
MKALIVLGLVLLSVTVQGKGFERCELARTLKRLGMDGYRGISLANWMCLAKWESGYNTRATNYNAGDRSTDYGIFQINSRYWCNDGKTPGAVNACHLSCSALLQDNIADAVACAKRVVRDPQGIRAWVAWRNRCQNRDVRQYVQGCGV [V20G],65.7,108

# Same assay, conditions: Homo sapiens; pH 3.4; Thermal; DSC; glycine-HCl 0.05 M; reversible: yes; structure 1LZ1; whole UniProt chain shown
Variant,Tm [°C],unfolding enthalpy (calorimetric) [kcal/mol]
MKALIVLGLVLLSVTVQGKGFERCELARTLKRLGMDGYRGISLANWMCLAKWESGYNTRATNYNAGDRSTDYGIFQINSRYWCNDGKTPGAVNACHLSCSALLQDNIADAVACAKRVVRDPQGIRAWVAWRNRCQNRDVRQYVQGCGV [V20G],69,112
